The source of these data is article PMC11251166.

As a reminder, the Kd is the concentration at which binding is half-saturated. Read a low Kd as higher affinity.

This test concerns the target ADP-ribosylated ubiquitin (ADPR-Ub) (UniProt P0CG48). The experiment in a line: ITC. On the technique in general: In ITC the heat of successive injections is recorded.

The substance MavL_N322A returned a Kd of 5.96 µM.
